The results in this text go back to publication PMC9482650, “Quantitative fragmentomics allow affinity mapping of interactomes” (Nature Communications, 2022).

To fix the notation:
B1: KCNA7, Q96RP8 (peptide)
chain: PPGKHLVTEV
B2: PLEKHA1, Q9HB21 (peptide)
chain: DDASLPVSDV

Residue numbers refer to the chain shown, from its start.

Sequence of MAST2, Q6P0Q8 (Q6P0Q8 1099-1202): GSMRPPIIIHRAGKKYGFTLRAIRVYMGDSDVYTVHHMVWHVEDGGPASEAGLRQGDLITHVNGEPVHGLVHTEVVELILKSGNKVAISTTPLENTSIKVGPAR
Sequence of MAGI2_6, Q86UL8 (Q86UL8 1141-1229): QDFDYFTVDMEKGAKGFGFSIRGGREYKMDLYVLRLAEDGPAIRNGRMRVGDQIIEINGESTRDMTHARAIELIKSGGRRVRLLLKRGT

The first experiment has as its target T1, TX1BP3, O14907.
T1 sequence (O14907 10-122, limits assumed, looked up): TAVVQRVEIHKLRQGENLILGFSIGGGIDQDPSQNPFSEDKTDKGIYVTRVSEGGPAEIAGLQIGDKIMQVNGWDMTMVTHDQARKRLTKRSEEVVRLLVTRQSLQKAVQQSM
In words: holdup assay. On the set-up: key: below the threshold = too weak to quantify, mostly under pKd 3.1 to 4. To be noted: plain residues with an end cap or a label only (N-terminal biotin on a linker: ado-ado).
On to B1, for which the pKd is 4.67.

With B2, the negative-log Kd (pKd) is 3.84.

Another experiment concerns the target T2, MPDZ_5, O75970.
T2 sequence (O75970 695-796, limits assumed, looked up): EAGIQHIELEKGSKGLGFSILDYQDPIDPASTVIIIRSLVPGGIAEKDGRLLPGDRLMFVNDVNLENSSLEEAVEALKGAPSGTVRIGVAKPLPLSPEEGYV
The experiment is described as follows: holdup assay. On the set-up: key: below the threshold = too weak to quantify, mostly under pKd 3.1 to 4. To be noted: plain residues with an end cap or a label only (N-terminal biotin on a linker: ado-ado).
As for B1, the pKd entry was “below the threshold”.

B2: the negative-log Kd (pKd) entry was “below the threshold”.

The target of another experiment is FRMPD2_2, Q68DX3. In words: holdup assay. On the set-up: key: below the threshold = too weak to quantify, mostly under pKd 3.1 to 4. The conditions noted are these: plain residues with an end cap or a label only (N-terminal biotin on a linker: ado-ado).
Sequence of FRMPD2_2, Q68DX3 (Q68DX3 944-1038): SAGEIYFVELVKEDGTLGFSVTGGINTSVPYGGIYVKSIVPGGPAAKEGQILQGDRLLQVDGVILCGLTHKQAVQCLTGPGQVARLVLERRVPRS
B1 had a pKd of 4.51.

For B2, the pKd was 4.87.

A further experiment addresses T3, NHERF3_4, Q5T2W1.
T3 sequence (Q5T2W1 373-468, limits assumed, looked up): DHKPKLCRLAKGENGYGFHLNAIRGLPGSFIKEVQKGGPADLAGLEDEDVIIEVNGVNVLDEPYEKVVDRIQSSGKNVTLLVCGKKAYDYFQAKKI
The experiment is described as follows: holdup assay. On the set-up: key: below the threshold = too weak to quantify, mostly under pKd 3.1 to 4. The conditions noted are these: plain residues with an end cap or a label only (N-terminal biotin on a linker: ado-ado).
Consider B1, for which the pKd entry is listed as “below the threshold”.

On to B2, for which the pKd result is reported as “below the threshold”.

In a further experiment the target is PTPN3, P26045. In words: holdup assay. To be noted: plain residues with an end cap or a label only (N-terminal biotin on a linker: ado-ado). On the set-up: key: below the threshold = too weak to quantify, mostly under pKd 3.1 to 4.
Sequence of PTPN3, P26045 (P26045 505-587): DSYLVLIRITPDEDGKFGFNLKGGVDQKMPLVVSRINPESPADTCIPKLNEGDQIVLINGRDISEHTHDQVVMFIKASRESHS
On to B1, for which the pKd is 4.74.

Molecule B2 returned a pKd of 3.58.

Another experiment deals with DLG4_1, P78352. The experiment is described as follows: holdup assay. On the set-up: key: below the threshold = too weak to quantify, mostly under pKd 3.1 to 4. The conditions noted are these: plain residues with an end cap or a label only (N-terminal biotin on a linker: ado-ado).
Sequence of DLG4_1, P78352 (P78352 62-152): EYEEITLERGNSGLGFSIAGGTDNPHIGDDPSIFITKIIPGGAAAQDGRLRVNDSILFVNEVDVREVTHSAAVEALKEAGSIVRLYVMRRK
For B1, the pKd was found to be 4.64.

Turning to B2, the pKd result is given as “below the threshold”.

A further experiment has as its target T4, APBA2_2, Q99767.
T4 sequence (Q99767 654-744, limits assumed, looked up): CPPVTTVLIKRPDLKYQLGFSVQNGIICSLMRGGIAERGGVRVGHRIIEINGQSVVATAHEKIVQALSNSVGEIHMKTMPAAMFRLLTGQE
In words: holdup assay. Further details: key: below the threshold = too weak to quantify, mostly under pKd 3.1 to 4. To be noted: plain residues with an end cap or a label only (N-terminal biotin on a linker: ado-ado).
For the molecule B1, the pKd result is given as “below the threshold”.

As to B2, the pKd result is “below the threshold”.

The next experiment addresses T5, SIPA1L2, Q9P2F8.
T5 sequence (Q9P2F8 945-1036, limits assumed, looked up): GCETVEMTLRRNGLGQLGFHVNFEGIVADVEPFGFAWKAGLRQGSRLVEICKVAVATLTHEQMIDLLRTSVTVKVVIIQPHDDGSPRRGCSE
The experiment is described as follows: holdup assay. On the set-up: key: below the threshold = too weak to quantify, mostly under pKd 3.1 to 4. The conditions noted are these: plain residues with an end cap or a label only (N-terminal biotin on a linker: ado-ado).
On to B1, for which the pKd entry is given as “below the threshold”.

Consider B2, for which the pKd entry is listed as “below the threshold”.

A further experiment deals with Inadl_4, Q8NI35. The experiment is described as follows: holdup assay. Further details: key: below the threshold = too weak to quantify, mostly under pKd 3.1 to 4. The conditions noted are these: plain residues with an end cap or a label only (N-terminal biotin on a linker: ado-ado).
Sequence of Inadl_4, Q8NI35 (Q8NI35 547-651): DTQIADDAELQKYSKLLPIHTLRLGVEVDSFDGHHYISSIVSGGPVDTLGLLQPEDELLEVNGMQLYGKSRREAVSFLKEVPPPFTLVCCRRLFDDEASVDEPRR
On to B1, for which the negative-log Kd (pKd) entry is “below the threshold”.

Turning to B2, the pKd result is “below the threshold”.

The next experiment has as its target T6, LIN7B, Q9HAP6.
T6 sequence (Q9HAP6 88-185, limits assumed, looked up): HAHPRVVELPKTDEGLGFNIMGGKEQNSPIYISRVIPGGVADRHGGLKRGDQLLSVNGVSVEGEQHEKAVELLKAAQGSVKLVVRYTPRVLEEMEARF
The experiment is described as follows: holdup assay. Further details: key: below the threshold = too weak to quantify, mostly under pKd 3.1 to 4. To be noted: plain residues with an end cap or a label only (N-terminal biotin on a linker: ado-ado).
Regarding B1, the negative-log Kd (pKd) stood at 3.97.

As to B2, the pKd result is “below the threshold”.

The target of a further experiment is CASK, O14936. In words: holdup assay. Further details: key: below the threshold = too weak to quantify, mostly under pKd 3.1 to 4. To be noted: plain residues with an end cap or a label only (N-terminal biotin on a linker: ado-ado).
Sequence of CASK, O14936 (O14936 487-570): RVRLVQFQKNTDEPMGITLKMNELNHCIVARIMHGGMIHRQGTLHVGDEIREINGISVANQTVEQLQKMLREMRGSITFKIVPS
Turning to B1, the pKd result was “below the threshold”.

As to B2, the pKd entry is “below the threshold”.

The target in another experiment is T7, APBA1_2, Q02410.
T7 sequence (Q02410 742-832, limits assumed, looked up): T4 sequence (Q99767 654-744, limits assumed, looked up) with K10R, K15R, A59P, Q65H, A66I, S70A, F84Y, G89A
In words: holdup assay. Further details: key: below the threshold = too weak to quantify, mostly under pKd 3.1 to 4. To be noted: plain residues with an end cap or a label only (N-terminal biotin on a linker: ado-ado).
In the case of B1, the pKd came out at 4.17.

Regarding B2, the pKd is 3.89.

The target of a further experiment is T8, PDZD7_3, Q9H5P4.
T8 sequence (Q9H5P4 857-944, limits assumed, looked up): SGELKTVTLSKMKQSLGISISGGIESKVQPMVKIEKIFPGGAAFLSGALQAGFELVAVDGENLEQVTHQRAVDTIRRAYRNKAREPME
The experiment is described as follows: holdup assay. Further details: key: below the threshold = too weak to quantify, mostly under pKd 3.1 to 4. The conditions noted are these: plain residues with an end cap or a label only (N-terminal biotin on a linker: ado-ado).
B1 showed a pKd of 5.2.

In the case of B2, the pKd worked out at 5.22.

For another experiment, the target named is PDLIM1, O00151. In words: holdup assay. On the set-up: key: below the threshold = too weak to quantify, mostly under pKd 3.1 to 4. To be noted: plain residues with an end cap or a label only (N-terminal biotin on a linker: ado-ado).
Sequence of PDLIM1, O00151 (O00151 1-87): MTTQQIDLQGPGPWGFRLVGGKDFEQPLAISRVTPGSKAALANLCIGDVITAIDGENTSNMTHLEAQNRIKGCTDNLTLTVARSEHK
On to B1, for which the pKd entry is given as “below the threshold”.

Molecule B2 registered a pKd of 3.57.

The target of another experiment is ARHGEF12, Q9NZN5-2. In words: holdup assay. On the set-up: key: below the threshold = too weak to quantify, mostly under pKd 3.1 to 4. The conditions noted are these: plain residues with an end cap or a label only (N-terminal biotin on a linker: ado-ado).
Sequence of ARHGEF12, Q9NZN5-2 (Q9NZN5 other isoform, or with tags, fused parts or gaps): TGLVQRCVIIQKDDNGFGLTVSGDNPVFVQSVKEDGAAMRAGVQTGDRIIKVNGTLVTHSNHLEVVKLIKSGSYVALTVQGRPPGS
Turning to B1, the pKd came to 5.22.

As for B2, the pKd is 4.36.

The next experiment has as its target T9, MPP7, Q5T2T1.
T9 sequence (Q5T2T1 134-230, limits assumed, looked up): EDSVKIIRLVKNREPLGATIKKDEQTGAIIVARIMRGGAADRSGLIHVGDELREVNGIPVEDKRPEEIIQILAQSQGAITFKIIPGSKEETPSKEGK
The experiment is described as follows: holdup assay. The conditions noted are these: plain residues with an end cap or a label only (N-terminal biotin on a linker: ado-ado). Further details: key: below the threshold = too weak to quantify, mostly under pKd 3.1 to 4.
Regarding B1, the pKd entry is reported as “below the threshold”.

In the case of B2, the pKd result was “below the threshold”.

A further experiment concerns the target MAGI2_6, Q86UL8. In words: holdup assay. To be noted: plain residues with an end cap or a label only (N-terminal biotin on a linker: ado-ado). On the set-up: key: below the threshold = too weak to quantify, mostly under pKd 3.1 to 4.
In turn, B1 displayed a pKd of 4.51.

As to B2, the pKd amounted to 5.09.

The next experiment addresses T10, GRIP1_5, Q9Y3R0.
T10 sequence (Q9Y3R0 568-668, limits assumed, looked up): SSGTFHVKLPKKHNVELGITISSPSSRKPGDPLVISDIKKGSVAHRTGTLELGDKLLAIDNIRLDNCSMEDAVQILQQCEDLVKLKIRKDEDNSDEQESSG
The experiment is described as follows: holdup assay. Further details: key: below the threshold = too weak to quantify, mostly under pKd 3.1 to 4. To be noted: plain residues with an end cap or a label only (N-terminal biotin on a linker: ado-ado).
On to B1, for which the pKd result is on record as “below the threshold”.

B2: the negative logarithm of the Kd (pKd) result is given as “below the threshold”.

For the next experiment, the target named is T11, NHERF3_3, Q5T2W1.
T11 sequence (Q5T2W1 238-333, limits assumed, looked up): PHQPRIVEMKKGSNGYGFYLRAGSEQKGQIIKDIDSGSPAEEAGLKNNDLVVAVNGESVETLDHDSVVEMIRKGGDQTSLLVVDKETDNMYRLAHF
In words: holdup assay. On the set-up: key: below the threshold = too weak to quantify, mostly under pKd 3.1 to 4. The conditions noted are these: plain residues with an end cap or a label only (N-terminal biotin on a linker: ado-ado).
As for B1, the pKd entry is reported as “below the threshold”.

With B2, the pKd result was “below the threshold”.

A further experiment addresses T12, ARHGAP21, Q5T5U3.
T12 sequence (Q5T5U3 45-169, limits assumed, looked up): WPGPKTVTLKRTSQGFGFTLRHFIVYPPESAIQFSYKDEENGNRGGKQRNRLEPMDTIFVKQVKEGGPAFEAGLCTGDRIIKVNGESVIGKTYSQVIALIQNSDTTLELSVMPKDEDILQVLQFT
In words: holdup assay. Further details: key: below the threshold = too weak to quantify, mostly under pKd 3.1 to 4. The conditions noted are these: plain residues with an end cap or a label only (N-terminal biotin on a linker: ado-ado).
Turning to B1, the pKd result is listed as “below the threshold”.

B2 had a pKd of 3.5.

For another experiment, the target named is T13, SNTB1, Q13884.
T13 sequence (Q13884 107-205, limits assumed, looked up): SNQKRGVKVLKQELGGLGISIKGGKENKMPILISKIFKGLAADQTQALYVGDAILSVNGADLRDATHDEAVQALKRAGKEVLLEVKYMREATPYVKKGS
The experiment is described as follows: holdup assay. To be noted: plain residues with an end cap or a label only (N-terminal biotin on a linker: ado-ado). On the set-up: key: below the threshold = too weak to quantify, mostly under pKd 3.1 to 4.
In the case of B1, the pKd is 4.32.

Consider B2, for which the pKd worked out at 4.59.

Another experiment concerns the target MAST2, Q6P0Q8. In words: holdup assay. Further details: key: below the threshold = too weak to quantify, mostly under pKd 3.1 to 4. To be noted: plain residues with an end cap or a label only (N-terminal biotin on a linker: ado-ado).
B1 had a pKd of 5.21.

B2 yielded a negative-log Kd (pKd) of 4.73.

The target of the next experiment is GRIP2_4, Q9C0E4. In words: holdup assay. On the set-up: key: below the threshold = too weak to quantify, mostly under pKd 3.1 to 4. The conditions noted are these: plain residues with an end cap or a label only (N-terminal biotin on a linker: ado-ado).
Sequence of GRIP2_4, Q9C0E4 (Q9C0E4 446-548): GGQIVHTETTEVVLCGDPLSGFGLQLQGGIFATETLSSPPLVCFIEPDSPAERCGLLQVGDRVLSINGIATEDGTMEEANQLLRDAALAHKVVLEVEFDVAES
For B1, the pKd result was “below the threshold”.

B2: the pKd entry is “below the threshold”.

The next experiment addresses T14, MPP2, Q14168.
T14 sequence (Q14168 180-250, limits assumed, looked up): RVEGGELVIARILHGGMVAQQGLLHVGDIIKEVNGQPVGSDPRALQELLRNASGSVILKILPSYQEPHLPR
The experiment is described as follows: holdup assay. Further details: key: below the threshold = too weak to quantify, mostly under pKd 3.1 to 4. The conditions noted are these: plain residues with an end cap or a label only (N-terminal biotin on a linker: ado-ado).
In the case of B1, the pKd result is reported as “below the threshold”.

For the molecule B2, the pKd result was “below the threshold”.
